Assay [1] concerns the target toxin-binding region from T. ni cadherin (TnCAD-FL) (Trichoplusia ni). Put plainly: BLI. On the technique in general: In BLI a coated tip is dipped into the sample, and binding shifts an interference pattern.
Assay [2] deals with SH2 domain of ABL1 kinase fused to the 434 phage cI repressor (UniProt P00519). The experiment in a line: two-hybrid.

As usually defined, the Kd is the constant that tells how readily two partners part at equilibrium. A lower Kd goes with a tighter complex. As for “wild-type Cry1Ac, trypsin-activated (from UniProt P05068 1-1178) (natural protein)”, the dissociation constant Kd in assay [1] was over 1 mM. In assay [2], “wild-type HA4 monobody fused to RpoZ (designed binder)” displayed a fold transcriptional activation of over 200 fold.

Values taken from article PMC4865400.
